The target of assay [1] is T1, myotoxin II from Bothrops asper (Bothrops asper, UniProt P24605 17-137, biotin (EZ-Link NHS-PEG4-Biotin, molar ratio 1:1.5 toxin:biotin)). In words: BLI.
In assay [2] the target is T1, myotoxin II from Bothrops asper. In words: BLI. This is another data set of the same source.

T1 sequence (P24605 17-137): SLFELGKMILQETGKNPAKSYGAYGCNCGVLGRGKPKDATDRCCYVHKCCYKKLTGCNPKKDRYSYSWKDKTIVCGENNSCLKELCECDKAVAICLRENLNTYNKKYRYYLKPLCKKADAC

B1: G08(LALA + YTE) human IgG1 (antibody, V domains shown)
VH: EVQLVESGGGVVQPGRSLRLSCAASGFTFSSYGMHWVRQAPGKGLEWVAVISYDGSNKYYADSVKGRFTISRDNSKNTLYLQMNSLRAEDTAVYYCARTNYDSGDAFDIWGQGTLVTVSS
VL: NFMLTQPHSVSESPGKTVTISCTRSSGSIASNYVQWYQQRPGSSPTTVIYEDNQRPSGVPDRFSGSIDSSSNSASLTISGLKTEDEADYYCQSYDSSTVVFGGGTKLTVL
On to B1, for which the Kd in assay [1] was 9.41 nM. The koff in assay [2] was found to be 0.00283 s⁻¹.

For the origin of these results see paper PMC10791742 (2024).
